Measurements from the supplement of paper PMC10567573.
± gives the standard deviation.

Test: protein stability index of a GFP-peptide fusion (GPS, HEK-293T) (PSI 1-6); higher = more stable
Settings: c terminus: a fixed tail appended
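Further: 24-mer peptide tiles fused after GFP, lentivirally expressed, FACS-sorted into six equal bins by GFP/DsRed ratio, decoded by Illumina sequencing, PSI is the read-weighted mean bin number.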

Sequence | protein stability index (treatment: DMSO) | protein stability index (treatment: MLN4924 1 uM, 8 h)
IAANLENKATNTDHLTTVLYLQLA [C8orf76] | 2.36 ± 0.28 | 2.17 ± 0.25
LPVDDDSDLNVVASFDRRGEYIYT [RBBP5] | 3.41 ± 0.25 | 3.7 ± 0.28
FKTIEELRDKIMATTIDNSRVILE [KRT15] | 2.54 ± 0.28 | 2.65 ± 0.26
AQMSTLHVSPPPSADPARGLPRSR [PDLIM4] | 4.79 ± 0.2 | 4.86 ± 0.13
EPLPVERDPAAGAAPFRFVARPVR [ZNF511] | 2.77 ± 0.68 | 3.48 ± 0.87
DLHKMNHVTPPNVSLGATGGPPAG [JUNB] | 4.38 ± 0.19 | 4.39 ± 0.078
PMKSAPVMLTLSDSKHVVLPVDDD [RBBP5] | 5.08 ± 0.12 | 5.07 ± 0.08
QFTMGGPAISMASPMSIPTNTMHY [CARM1] | 2.54 ± 0.21 | 2.68 ± 0.18
EGGGGGSYFSGQGSDTGASLKLAS [JUNB] | 4.67 ± 0.12 | 4.72 ± 0.12
RGSIQSRYISMSVWTSPRRLVELA [PRAME] | 2.52 ± 0.24 | 2.71 ± 0.3
LLPEKAFSDIPSPYLRGTIKMMQA [GFOD1] | 2.45 ± 0.23 | 2.81 ± 0.44
NEEIQSFIYSLKQMLLNVEANSAK [FSD1] | 2.99 ± 0.73 | 2.72 ± 0.38
TGGSADLFGGFADFGSAAASGSFP [CLINT1] | 3.69 ± 0.35 | 3.62 ± 0.24
RRFQQTQYLALPERAELAASLGLT [DLX1] | 2.95 ± 0.21 | 3.12 ± 0.099
LNPQLVQPAKKPLLWSDPADNKIV [ESRRG] | 3.78 ± 0.23 | 3.83 ± 0.047
KIDLENTLEQEQEALVNRLWKRMD [CCDC6] | 3.23 ± 0.41 | 3.78 ± 0.39
EVTASQEARGLRLSDLEDLEEEEE [IRX6] | 5.73 ± 0.34 | 5.64 ± 0.14
SALASDRFNLILADTNSDRLFTVN [DCAF4] | 2.61 ± 0.18 | 2.69 ± 0.32
AALHGLEETKKLANKYLVEDVLLL [KLHL14] | 2.42 ± 0.22 | 2.55 ± 0.56
YNIPHGPVVGSTRRLYEKKIFEYE [EMD] | 3.18 ± 0.29 | 3.23 ± 0.14
TQDGKEQPELPCAMAMGTPSTTER [PXN] | 5.21 ± 0.27 | 5.18 ± 0.3
TQIPADEDTQTDADSSAQAAAQAP [TAF7L] | 5.49 ± 0.072 | 5.51 ± 0.15
ERAPTATFHDSKHNIVHVHFDATR [WDFY2] | 3.34 ± 0.17 | 3.33 ± 0.29

Sequence | protein stability index (treatment: DMSO) | protein stability index (treatment: MLN4924 1 uM, 8 h)
NLHSLALDFCDFTAEMARVLTDSN [FBXO33] | 1.84 ± 0.25 | 2.49 ± 0.61
SSSRGSSHCDSPSPQEDGQIMFDV [BNIP3L] | 4.81 ± 0.26 | 4.91 ± 0.18
KSAHQTHSSWTPPNAQYWSQFHSV [DNAJC4] | 2.74 ± 0.28 | 2.67 ± 0.18
VRIQNPSLRENDFIEIELDRQELT [ANKRD40] | 3.04 ± 0.41 | 3.26 ± 0.44
MACAYAPSGCAIACGGLDNKCSVY [GNB5] | 2.44 ± 0.13 | 2.31 ± 0.25
IGEGMTKYDYLMTLHGVVNESTVC [TENT5D] | 2.53 ± 0.19 | 2.33 ± 0.19
MEEVLLLGLKDKEGYTSFWNDCIS [GOLPH3L] | 2.29 ± 0.29 | 2.61 ± 0.27
AARSGDAAANKLFHYIPGTDILDL [PLEKHN1] | 3.51 ± 0.39 | 3.35 ± 0.14
RGCSVKIWTAHYDPGHCFAESREL [ALG2] | 2.21 ± 0.26 | 2.11 ± 0.52
PVTICCGHSFCRPCLCLSWEEAQS [TRIM43] | 2.61 ± 0.35 | 2.95 ± 0.36
PRCDLVDLGEGKICFCCEEFQPAK [FAM189A2] | 3.3 ± 0.44 | 3.67 ± 0.49
NTLAPTCFKAKLHRKRGSQPPDMA [RSPH3] | 3.83 ± 0.12 | 3.87 ± 0.25
EEFAAGPAQSGILSDREVVNLFLH [BTBD1] | 3.16 ± 0.56 | 3.46 ± 0.22
FLESQGIELNPPEKMALDPYTELR [EFHC1] | 3.79 ± 0.41 | 3.89 ± 0.35
HISTFINELDSGFRLLNLKNDSLR [TSN] | 2.23 ± 0.13 | 2.1 ± 0.25
FEYPESSGPARVIAIVSVMVILIS [KCNA1] | 2.82 ± 0.47 | 2.87 ± 0.48
EKEEDHAPEFIKVRENLRRIATLT [FAM107A] | 2.58 ± 0.56 | 2.81 ± 0.6
LYHSVKQGPISTKELADFIRERAT [FCHO1] | 2.35 ± 0.14 | 2.4 ± 0.29
RAASENSQDALRVVSTSGEQMKVY [IKZF1] | 4.26 ± 0.57 | 4.78 ± 0.29
GSTMLIEAAKGGHTSVVCYLLDYP [ANKRD17] | 2.59 ± 0.38 | 2.55 ± 0.56
RQPVSFHRVKLTNSTLDPHGHLIL [TBX6] | 2.27 ± 0.16 | 2.27 ± 0.34
RVKLEEDPDGEEGSSIPWNHLPDP [ZNF24] | 5.18 ± 0.2 | 5.19 ± 0.17
KSLDGVTNDRTASQGQWGRAWEVD [DHCR7] | 4.47 ± 0.11 | 4.465 ± 0.035

Sequence | protein stability index (treatment: DMSO) | protein stability index (treatment: MLN4924 1 uM, 8 h)
VDITPYLDQLDESLRDKVLQLQKG [INTS3] | 3.79 ± 0.071 | 4.06 ± 0.1
ELKKMVQQSDLGQYVTFLRSFSDK [ALG2] | 2.21 ± 0.29 | 2.53 ± 0.42
QYALELLTVYAWERGSMKTHFNTA [OAS1] | 3 ± 0.24 | 2.86 ± 0.43
RMVPALPPKRMLGADREFIEARRR [SNX8] | 3.96 ± 0.29 | 4.17 ± 0.18
GKEQSRRDDLEALGHMFMYFLRGS [CSNK1G3] | 2.38 ± 0.34 | 2.29 ± 0.45
KDFANTIPGHGGIMDRFDCQYLMA [CDS2] | 2.69 ± 0.37 | 2.8 ± 0.26
IVETVCIVWFSFEFVVRCFACPSQ [KCNA4] | 3.04 ± 0.21 | 2.66 ± 0.18
SKPSSDLLDLQPDFSSGGAAAAAA [SNAP91] | 4.99 ± 0.37 | 5.027 ± 0.049
NEWRRPIIQFVESGDDKNSNYFSM [TRIM29] | 3 ± 0.3 | 3.12 ± 0.34
HMNRLQSQRAMLLQGTESLNRATQ [VTI1B] | 4.12 ± 0.12 | 3.895 ± 0.03
YFITLGTEIAEQEGNQKGEQATSL [KCNA1] | 3.79 ± 0.1 | 3.84 ± 0.24
GVLHKHQRALHKYSLMKRQMMSAT [SNX8] | 2.4 ± 0.18 | 2.58 ± 0.24
EDQVVVNKAAVMVHQLSKKEASRH [CTNNB1] | 4.82 ± 0.25 | 4.8 ± 0.22
SMPQKFLGDKGLSDTPYDSSASYE [IKZF1] | 4.74 ± 0.088 | 4.73 ± 0.34
CLLTYGMTSSSAYYYTKVMSELFL [PKD2L1] | 3.23 ± 0.41 | 2.83 ± 0.73
QVQSLITNVESQLAEIRSDLERQN [KRT33B] | 3.85 ± 0.22 | 3.91 ± 0.1
ESLMKDGDKNNDGRIDFDEFLKMM [TNNC2] | 4.53 ± 0.1 | 4.55 ± 0.31
RKDVCKSTHHGCEHICVNNGNSYI [MATN2] | 3.01 ± 0.32 | 3.07 ± 0.23
DRHGVYGLQRNLLVENIIDIYKQE [TRIM63] | 3.2 ± 0.32 | 3.39 ± 0.24
AKTIDTSPPVDLFATASAAVPVST [SNAP91] | 4.37 ± 0.1 | 4.32 ± 0.13
IYRFLKLHPRGKNNFSPLHLAVDK [FEM1C] | 2.31 ± 0.45 | 2.25 ± 0.28
WELREKQQLAAEPVPTGFFNMWGF [WDR41] | 2.01 ± 0.11 | 2.37 ± 0.23
LEAIQLDGEILFSLLQKVSPVAHK [TBC1D10A] | 2.12 ± 0.48 | 2.01 ± 0.34

Sequence | protein stability index (treatment: DMSO) | protein stability index (treatment: MLN4924 1 uM, 8 h)
QDKPYKCTDCGKSFNHNAHLTVHK [ZNF8] | 3.71 ± 0.27 | 3.72 ± 0.41
SLSHSPGCSSTQGNGRPGRPSQYR [LCOR] | 4.44 ± 0.13 | 4.67 ± 0.22
EHGLHTKYIHRMMQIEFIKQGSMN [TRAF3IP2] | 2.3 ± 0.2 | 2.5 ± 0.26
KFQLNKYTGEIKISENLDYEETGF [PCDHGA10] | 2.6 ± 0.099 | 3.63 ± 0.36
NVGEISVSTRLTVLREDQIPRGFP [PTPRD] | 3.31 ± 0.54 | 3.44 ± 0.44
GLHLTDPSQRLVQNCLWTLRNLSD [CTNNB1] | 2.29 ± 0.31 | 2.45 ± 0.27
AKAAALSTKTPAPCSEFMEPSSDP [SPAG8] | 5.1 ± 0.33 | 5.41 ± 0.19
NKIKVMHKQLLLFHNAVSAYFAGN [ARFIP2] | 2.55 ± 0.64 | 2.34 ± 0.24
FRGDDGIFDDNFIEERKQGLEQFI [SNX3] | 3.28 ± 0.18 | 3.76 ± 0.66
FKKTAYELLDEKLLARGTMQPFNY [FEM1A] | 2.37 ± 0.46 | 2.61 ± 0.17
AGIALYSHEDVCVFKCSVSRETEC [CARM1] | 3 ± 0.3 | 2.7 ± 0.4
IKTTLRELLVYIVFLVDICLLTYG [PKD2L1] | 2.98 ± 0.45 | 2.93 ± 0.53
SLFVLDQNDNAPEILYPALPTDGS [PCDHGA10] | 3.69 ± 0.33 | 3.84 ± 0.32
DAFWWAVVSMTTVGYGDMYPVTIG [KCNA1] | 3.45 ± 0.23 | 3.33 ± 0.49
GWGEVMLMADKVLRWERAWFPPAI [ARL6IP1] | 2.87 ± 0.48 | 3.04 ± 0.78
HLLIPELGACVAPGGNLIVELARY [DNAAF3] | 2.28 ± 0.085 | 2.25 ± 0.24
VMLGAGGVGKSAMTMQFISHRFPE [RIT1] | 2.33 ± 0.34 | 2.12 ± 0.34
PKTQACSGSESPSDSGKDLPEPSK [MYCL] | 5.36 ± 0.23 | 5.63 ± 0.25
TFPASVLAPVPTHSTVSELSRSPV [DUSP5] | 3.92 ± 0.082 | 4.14 ± 0.39
FLRSLRQMKQKVQSLYQEVFGRLR [NFE2L1] | 2.41 ± 0.59 | 1.7 ± 0.43
